Measured values published in PMC8955265, “Systematic Discovery of FBXW7-Binding Phosphodegrons Highlights Mitogen-Activated Protein Kinases as Important Regulators of Intracellular Protein Levels” (International Journal of Molecular Sciences, 2022).
Where no end group is shown, it is not given here. [ ]: non-standard residue; d: D form. pT = C[C@@H](OP(=O)(O)O)[C@H](N)C(=O)O; pS = N[C@@H](COP(=O)(O)O)C(=O)O; CF = carboxyfluorescein

Biological target: T1, Skp1-FBXW7 complex (human, UniProt P63208 1-149; Q969H0 263-707)
T1 construct: Skp1, truncated, residues 1-149; cDNA obtained from a HEK293T cell cDNA pool; human FBXW7, residues 263-707 (holds the WD40 domain); it was removed with TEV protease after Ni-NTA; also called purified FBXW7; FBXW7-Skp1 complex; source: E. coli Rosetta (DE3), co-expressed from a bicistronic plasmid (pMG950), purified (Ni-NTA, anion exchange, SEC); not shown: His6, N-terminal, cleaved
Assay: fluorescence polarisation; direct titration: 50 nM CF-labeled CCNE peptide, increasing Skp1-FBXW7 complex; 20 mM Tris pH 8.0, 100 mM NaCl, 0.05% Brij35P, 2 mM TCEP; 384-well plates, 20 uL
Details: both partners purified

T1 sequence (P63208 1-149, chain 1 of 2): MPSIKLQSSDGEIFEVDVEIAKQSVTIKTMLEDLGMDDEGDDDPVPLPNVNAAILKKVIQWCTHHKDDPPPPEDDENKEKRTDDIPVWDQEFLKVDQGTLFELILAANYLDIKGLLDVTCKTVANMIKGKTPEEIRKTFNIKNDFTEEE
T1 sequence (Q969H0 263-707, chain 2 of 2): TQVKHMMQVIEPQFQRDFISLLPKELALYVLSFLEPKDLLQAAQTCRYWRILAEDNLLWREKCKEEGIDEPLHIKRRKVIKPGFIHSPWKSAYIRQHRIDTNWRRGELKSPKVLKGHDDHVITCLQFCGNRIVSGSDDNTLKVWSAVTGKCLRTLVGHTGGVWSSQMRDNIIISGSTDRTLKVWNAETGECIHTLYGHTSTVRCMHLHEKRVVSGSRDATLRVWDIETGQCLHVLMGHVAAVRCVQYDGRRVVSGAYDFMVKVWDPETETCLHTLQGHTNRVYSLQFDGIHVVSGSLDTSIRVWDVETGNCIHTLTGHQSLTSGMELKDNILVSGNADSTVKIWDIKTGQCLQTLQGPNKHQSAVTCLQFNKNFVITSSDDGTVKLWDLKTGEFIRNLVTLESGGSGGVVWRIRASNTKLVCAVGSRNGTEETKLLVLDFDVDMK

binding result: binds
B1: carboxyfluorescein (CF) labeled CCNE peptide (CF-PSGLLpTPPQpSGKKQ) (peptide)
peptide: {CF}-PSGLL[pT]PPQ[pS]GKKQ
notes: bisphosphorylated degron motif of cyclin E1 (CCNE1); also called fluorescently labeled CCNE peptide; CCNE1 motif; source: synthetic peptide (GenScript)
